These results are taken from US20150267232A1, “IN VIVO AND IN VITRO CARBENE INSERTION AND NITRENE TRANSFER REACTIONS CATALYZED BY HEME ENZYMES” (California Institute of Technology, priority 2012, published 2015).

Assay type in all cases: biochemical
The nature of assay [1]: Intramolecular carbene C—H insertion, substrate 4.1b. The settings on record: 10 mM 4.1b, 10 uM P450, 10 mM Na2S2O4; product 4.2b. As to the method: (§1) Yield of product 4.22b was established after calibration with phenethyl alcohol as an internal standard. The reaction is not catalyzed by the WT-BM3 heme domain or hemin at 5% catalyst loading.
(§2) A representative procedure for P450-catalyzed C—H insertion is as follows: A vial containing WT-AxD (20 μL, 200 μM) was sealed with a teflon cap and the headspace of this vial was purged with argon for 5 min. Concurrently, a solution of sodium dithionite (11 mM in phosphate buffer pH=8) was degassed for a minimum of 5 min and 360 μL of this solution was transferred to the vial containing protein. The gas lines were disconnected from the vials. The substrate 4.1a or 4.1b was then added as a solution (20 μL, 200 mM). Final concentrations of all components were: 10 uM enzyme, 10 mM substrate, and 10 mM dithionite. The reaction vials were then placed in a tray on a plate shaker and left to shake at 40 rpm for 12 h then 20 μL phenethyl alcohol (20 mM) was added as an internal standard.
(§3) The mixture was extracted with 1 mL cyclohexane and analyzed by GC-MS or GC. GC-MS was performed on a Shimadzu TQ8030 GC-MS with ion count detector and J&W HP-5 column (30 m×0.32 mm, 0.25 μm film) using the following method: 90° C. (hold 2 min), 90-190° C. (20° C./min), and 190-230 (40° C./min)

Assay [2] can be described thus: Intramolecular carbene C—H insertion, substrate 4.1a. How it is done: as §1
as §2, with “The reaction vials were then placed in a tray on a plate shaker and left to shake at 40 rpm for 12 h then 20 μL phenethyl alcohol (20 mM) was added as an internal standard.” left out
as §3

Assay [3] is described as follows: N—H insertion, diethyl amine and 4.11 (lidocaine synthesis). The settings on record: GC-MS. As to the method:
Diazo amides are also competent substrates for this reaction, and alpha-amino amides like 4.10 (FIG. 37A) can be produced in moderate yields. This transformation is particularly valuable because diazo amides can give rise to important building block compounds like diamines Additionally, this transformation can be used for the synthesis of lidocaine, which we were able to prepare using diethyl amine and 4.11 in the presence of H2-5-F10 (Scheme 1). […] (hold 1 min), 100-140° C. (6° C./min), 140-260° C. (20° C./min), 260° C. (hold 3 min)

Assay [4] is described as follows: N—H insertion, aniline with ethyl 2-diazopropanoate. The note with it: protein 20 μM, diazo 10.0 mM, aniline 20 mM. How it is done:
The reactions shown in FIG. 37A were carried out with protein (20 μM), ethyl diazo acetate (8.5 mM), aniline (20 mM) and Na2S2O4 (10 mM) in phosphate buffer (pH 8) and allowed to shake at room temperature for 12 h. Yields are reported in parenthesis and TTN are presented in italics. Yields were determined by GC calibrated for each product. An isolated yield of 65% for compound 4.3 was determined for the milligram scale reaction run as follows: 25 mM EDA, 25 mM aniline, 25 μM protein, and 25 mM Na2S2O4. The reaction producing compounds 4.5 and 4.10 were carried out with protein (20 μM), ethyl diazo acetate (10.0 mM), aniline (20 mM) and Na2S2O4 (10 mM).
While substituted diazo compounds can also be used for insertion, the yield from N—H insertion of ethyl 2-diazopropanoate into aniline is only 26% (product 4.5). To improve efficiency of this reaction, we examined the reaction of ethyl 2-diazopropanoate with a variety of axial mutants. In particular, the axial mutant WT-AxA provided the desired product in 83% yield, compared to 8% yield and 1.7% yield with axial mutant WT-AxS and WT-BM3 heme domain, respectively (FIG. 37B).
The reactions shown in FIG. 37B were carried out with 10 μM catalyst loading, 20 mM aniline, 10 mM Na2S2O4 and 10 mM ethyl 2-diazopropanoate as described above. For the final entry in FIG. 37B, whole cells expressing BM3-CIS-T438S at 2.5 μM were used. See, U.S. Provisional Application No. 61/711,640 for the procedure for catalysis with whole cells.

The nature of assay [5]: N—H insertion, aniline with ethyl diazo acetate (EDA). The text has this: We have found a variety of P450 variants to be general catalysts for carbenoid N—H insertion. We combined aniline with EDA in the presence of a reductant (Na2S2O4) under argon atmosphere and tested the mixture with seven P450BM3 variants previously identified as competent catalysts for cyclopropanation (Coelho, P. et al., Science. 2013, 339, 307-310). In choosing this set of P450s, we hypothesized that cyclopropanation activity could correlate with ability to generate the iron-carbenoid intermediate that is also necessary for N—H insertion. Whereas wild type BM3 (WT-BM3 (SEQ ID NO:1), Table 20, entry 1) provided only trace amounts of the desired product (4.3), a few variants gave 4.3 in good yields after 12 h at room temperature. In particular, variant H2-5-F10 which is derived from a thermostable P450BM3 lineage (Lewis, J. C. et al. ChemBioChem, 2010, 11, 2502-2505) and contains 15 mutation from WT-BM3 (SEQ ID NO:1), formed 4.3 in 47% yield and 473 turnovers (TTN) using 0.1% protein relative to EDA (entry 7). […] In contrast, when 1 mol % of the isolated hemin prosthetic group was used as catalyst, the single and double insertion products were produced in a 3.5 to 1 ratio (with a total product yield of 51%).
A representative procedure for P450-catalyzed N—H insertion is as follows. To an unsealed crimp vial, 60 μL of a P450 solution (67 or 133 μM) was added and the vial was sealed. A 12.5 mM solution of sodium dithionite in phosphate buffer (0.1 M, pH=8.0) was degassed by bubbling with argon in a 6 mL crimp-sealed vial. The headspace of the 2 mL vials containing P450 solution were flushed with argon (no bubbling). The buffer/dithionite solution (360 μL) was then added to each reaction vial via syringe, and the gas lines were disconnected from the vials. 10 μL of an 800 mM stock of aniline was added via a glass syringe, followed by 10 μL of a 340 mM stock of EDA (both stocks in MeOH). The reaction vials were then placed in a tray on a plate shaker and left to shake at 40 rpm. The final concentrations of the reagents were typically: 20 mM aniline, 8.5 mM EDA, 10 mM Na2S2O4, and 10 or 20 μM P450. After 12 h at 25° C., the vials were removed from the shaker and uncapped and 1 mL of cyclohexane was added, followed by 20 μL of a 20 mM solution of phenethyl alcohol (internal standard). The mixture was transferred to a 1.5 mL Eppendorf tube and vortexed and centrifuged (13,000×g, 1 min.). The organic layer was dried over sodium sulfate if necessary then analyzed by GC, with comparison to an authentically prepared sample that has been verified by proton NMR ([…], Varian, CDCl3).
Substitution is well-tolerated on the aniline partner on both the ortho and para positions. Reactions were analyzed by a Shimadzu GC with FID detector and J&W HP-5 column (30 m×0.32 mm, 0.25 μm film) and calibrated to an independently prepared sample of each product using phenethyl alcohol as internal standard. Reaction of aniline and EDA was also performed in milligram scale without any organic cosolvent to provide 4.3 in 65% isolated yield.
Calibration curves were plotted as follows. Yields of N—H insertion products were determined using calibration curves made with independently synthesized standards that have been verified by proton NMR, with comparison to known literature data (Baumann, L. K. et al. Organometallics. 2007, 26, 3995-4002; Anding, B. J. et al. Organometallics. 2013, 32, 2599-2607). Two stock solutions of product were made at 160 mM and 40 mM. To four or five samples containing 380 μL of buffer, product was added from either of the stock solutions such at a final concentration of 0.5-8.0 mM in 400 μL was obtained. 20 μL of internal standard was added to each eppendorf tube, then 1 mL of cyclohexane was added and the tubes were vortexed and centrifuged (13,000 ×g, 30 seconds). The organic layer was then analyzed by GC. The ratio of the areas under the internal standard and product peaks were plotted against the concentration for each solution. […]

Assay [6] can be described thus: P450BM3 compilation plate screen (GC, cyclopropane peaks). The settings on record: P450BM3 variants.

B1: WT-AxD: WT heme domain + C400D (protein)
chain: TIKEMPQPKTFGELKNLPLLNTDKPVQALMKIADELGEIFKFEAPGRVTRYLSSQRLIKEACDESRFDKNLSQALKFVRDFAGDGLFTSWTHEKNWKKAHNILLPSFSQQAMKGYHAMMVDIAVQLVQKWERLNADEHIEVPEDMTRLTLDTIGLCGFNYRFNSFYRDQPHPFITSMVRALDEAMNKLQRANPDDPAYDENKRQFQEDIKVMNDLVDKIIADRKASGEQSDDLLTHMLNGKDPETGEPLDDENIRYQIITFLIAGHETTSGLLSFALYFLVKNPHVLQKAAEEAARVLVDPVPSYKQVKQLKYVGMVLNEALRLWPTAPAFSLYAKEDTVLGGEYPLEKGDELMVLIPQLHRDKTIWGDDVEEFRPERFENPSAIPQHAFKPFGNGQRADIGQQFALHEATLVLGMMLKHFDFEDHTNYELDIKETLSLKPKGFVVKAKSKKIPLGGIPSPST
modifications: synthetic cytochrome P450-BM3 variant WT-AxD (heme)
notes: WT heme domain + C400D
For B1, the Yield % in assay [1] came to 4%; in assay [2] (10 mM 4.1a, 10 uM P450, 10 mM Na2S2O4, product 4.2a), 14%. For the same molecule, the “lactone formation via C—H bond insertion” value in assay [2] (substrates 4.1a and 4.1b, 10 μM variant or hemin at 5% catalyst loading, 16 h) is on record as “lactone formation”.

B2: H2-5-F10: 9-10A TS + F87V, L75A, I263A, T268A, L437A (protein, listed as Bacillus megaterium)
chain: TIKEMPQPKTFGELKNLPLLNTDKPVQALMKIADELGEIFKFEAPGRVTRYLSSQRLIKEACDESRFDKNLSQAAKFARDFAGDGLVTSWTHEKNWKKAHNILLPSFSQQAMKGYHAMMVDIAVQLVQKWERLNADEHIEVSEDMTRLTLDTIGLCGFNYRFNSFYRDQPHPFIISMVRALDEVMNKLQRANPDDPAYDENKRQFQEDIKVMNDLVDKIIADRKARGEQSDDLLTQMLNGKDPETGEPLDDGNIRYQIITFLAAGHEATSGLLSFALYFLVKNPHVLQKVAEEAARVLVDPVPSYKQVKQLKYVGMVLNEALRLWPTAPAFSLYAKEDTVLGGEYPLEKGDEVMVLIPQLHRDKTVWGDDVEEFRPERFENPSAIPQHAFKPFGNGQRACIGQQFALHEATLVLGMMLKHFDFEDHTNYELDIKETATLKPKGFVVKAKSKKIPLGGIPSPSTEQSAKKVRKKAENAHNTPLLVLYGSNMGTAEGTARDLADIAMSKGFAPQVATLDSHAGNLPREGAVLIVTASYNGHPPDNAKQFVDWLDQASADEVKGVRYSVFGCGDKNWATTYQKVPAFIDETLAAKGAENIADRGEADASDDFEGTYEEWREHMWSDVAAYFNLDIENSEDNKSTLSLQFVDSAADMPLAKMHGAFSTNVVASKELQQPGSARSTRHLEIELPKEASYQEGDHLGVIPRNYEGIVNRVTARFGLDASQQIRLEAEEEKLAHLPLAKTVSVEELLQYVELQDPVTRTQLRAMAAKTVCPPHKVELEALLEKQAYKEQVLAKRLTMLELLEKYPACEMKFSEFIALLPSIRPRYYSISSSPRVDEKQASITVSVVSGEAWSGYGEYKGIASNYLAELQEGDTITCFISTPQSEFTLPKDPETPLIMVGPGTGVAPFRGFVQARKQLKEQGQSLGEAHLYFGCRSPHEDYLYQEELENAQSEGIITLHTAFSRMPNQPKTYVQHVMEQDGKKLIELLDQGAHFYICGDGSQMAPAVEATLMKSYADVHQVSEADARLWLQQLEEKGRYAKDVWAG
modifications: cytochrome P450NADPH-P-450 reductase precursor, cytochrome P450 (BM3), CYP102A1
notes: 9-10A TS + F87V, L75A, I263A, T268A, L437A
In the case of B2, the production of lidocaine result in assay [3] was “Production of lidocaine was observed”. Besides, the “yield of product 4.5” value in assay [4] worked out at 26%. In assay [5] (GC-MS and 1H NMR, milligram-scale reactions), the double insertion product result was “No double insertion product was observed”. In assay [5] (milligram scale, 25 mM EDA, 25 mM aniline, 25 μM protein, 25 mM Na2S2O4, no organic cosolvent), the “isolated yield of 4.3” value was 65%. This molecule showed a TTn in assay [5] (protein 10 uM, EDA 8.5 mM, aniline 20 mM, Na2S2O4 10 mM, 12 h) of 473. For the same molecule, in assay [5] (protein 10 uM, EDA 8.5 mM, aniline 20 mM, Na2S2O4 10 mM, 12 h, product 4.3), the “% Yield” value was found to be 47%. Further, in assay [6] ((R,S)-(S,R), chiral β-CDX GC), the “ee (cis)” value is listed as −56. In assay [6] (diastereomeric excess = ([cis] − [trans])/([cis] + [trans])), the de was −46. This molecule gave an Absolute activity in assay [6] (sum of the area of the cyclopropane peaks over the area of the internal standard) of 0.1412.
